Assay results as given in patent US20250011363A1, “OPTIMIZED SHORTENED PEPTIDE THAT BINDS TO ACETYLCHOLINE RECEPTOR, AND USE THEREOF” (SKINMED CO., LTD., priority 2021, published 2025).

Each binder was assayed against acetylcholine receptor (assay: SPR, receptor immobilized on CM5 chip, peptide 10 uM).

Going from RRNAAK [6mer-1-916] to KKPEWR [6mer-1-877], the Binding affinity (RU) falls from 33 RU to 19 RU.

KRPCHR [6mer-1-872] and KRIWAR [6mer-1-873] are the same in Binding affinity (RU): 23 RU for the first, 23 RU for the second.

Going from RRICER [6mer-1-905] to KKHHAR [6mer-1-868], the Binding affinity (RU) falls from 36 RU to 14 RU.

First: RRWLYR [6mer-1-323]
Second: RRYNNR [6mer-1-879]
The Binding affinity (RU) of the first is higher: 149 RU for the first, 27 RU for the second.

Going from RRDKMK [6mer-1-902] to KRVQYR [6mer-1-320], the Binding affinity (RU) rises from 39 RU to 121 RU.

Going from KKINGK [6mer-1-906] to KRMKWK [6mer-1-899], the Binding affinity (RU) rises from 30 RU to 31 RU.

Going from RKPNGR [6mer-1-901] to KRCHFR [6mer-1-866], the Binding affinity (RU) falls from 35 RU to 26 RU.

Going from KRIPMR [6mer-1-867] to RKQQTK [6mer-1-315], the Binding affinity (RU) rises from 25 RU to 128 RU.

First: RKMAFR [6mer-1-891]
Second: KRKDER [6mer-1-869]
The Binding affinity (RU) of the first is lower: 13 RU for the first, 22 RU for the second.

Compared with KRWLQK [6mer-1-328], RRKTPR [6mer-1-885] is lower in Binding affinity (RU): 151 RU for the first, 17 RU for the second.

Compared with RRQIQR [6mer-1-325], KRCAAR [6mer-1-911] is lower in Binding affinity (RU): 142 RU for the first, 28 RU for the second.

First: KKDSKK [6mer-1-895]
Second: KRWVQK [6mer-1-319]
The Binding affinity (RU) of the first is lower: 28 RU for the first, 123 RU for the second.

Compared with RKYWAR [6mer-1-876], KRADDK [6mer-1-917] is higher in Binding affinity (RU): 19 RU for the first, 27 RU for the second.

Compared with RRLQRR [6mer-1-324], RKWIYK [6mer-1-326] is higher in Binding affinity (RU): 128 RU for the first, 136 RU for the second.

Going from RKDHIK [6mer-1-919] to KRINHR [6mer-1-887], the Binding affinity (RU) rises from 26 RU to 30 RU.

First: RRTSNK [6mer-1-890]
Second: RKFSNK [6mer-1-886]
The Binding affinity (RU) of the first is higher: 18 RU for the first, 17 RU for the second.

Going from RKTEKR [6mer-1-892] to KRPTIR [6mer-1-910], the Binding affinity (RU) rises from 20 RU to 42 RU.

Compared with RRKCVR [6mer-1-914], KKSRRK [6mer-1-318] is higher in Binding affinity (RU): 39 RU for the first, 145 RU for the second.

First: KRFWWK [6mer-1-913]
Second: RKFCMR [6mer-1-909]
The Binding affinity (RU) of the first is lower: 27 RU for the first, 33 RU for the second.

Compared with KKETFR [6mer-1-912], KKIDDK [6mer-1-883] is lower in Binding affinity (RU): 33 RU for the first, 21 RU for the second.

Compared with KRYTKR [6mer-1-884], KKRVQK [6mer-1-332] is higher in Binding affinity (RU): 26 RU for the first, 122 RU for the second.

Compared with KKPAMR [6mer-1-882], KRPMDK [6mer-1-880] is lower in Binding affinity (RU): 25 RU for the first, 21 RU for the second.

Compared with RRPAMR [6mer-1-920], KKHMER [6mer-1-881] is lower in Binding affinity (RU): 40 RU for the first, 20 RU for the second.

First: RRPSIK [6mer-1-897]
Second: RKCWWR [6mer-1-894]
The Binding affinity (RU) of the first is higher: 24 RU for the first, 18 RU for the second.

Going from RRDTGR [6mer-1-900] to RRESMR [6mer-1-918], the Binding affinity (RU) rises from 24 RU to 33 RU.

Going from KKDTKR [6mer-1-904] to KKTANK [6mer-1-888], the Binding affinity (RU) rises from 31 RU to 33 RU.

First: RKDTWK [6mer-1-915]
Second: RKRITR [6mer-1-331]
The Binding affinity (RU) of the first is lower: 27 RU for the first, 128 RU for the second.

Compared with KRMSHR [6mer-1-870], RKQIRK [6mer-1-316] is higher in Binding affinity (RU): 25 RU for the first, 145 RU for the second.

Compared with RRDWGR [6mer-1-922], RKPAWR [6mer-1-907] is higher in Binding affinity (RU): 34 RU for the first, 42 RU for the second.

Going from KREWDR [6mer-1-871] to RKATKR [6mer-1-898], the Binding affinity (RU) rises from 30 RU to 31 RU.

First: RRKDNR [6mer-1-878]
Second: RKFWHR [6mer-1-921]
The Binding affinity (RU) of the first is lower: 27 RU for the first, 36 RU for the second.

Compared with KRANHK [6mer-1-874], KKTNGR [6mer-1-875] is higher in Binding affinity (RU): 18 RU for the first, 33 RU for the second.

First: KRIMEK [6mer-1-889]
Second: KKFMVR [6mer-1-908]
The Binding affinity (RU) of the first is lower: 25 RU for the first, 37 RU for the second.

Going from RRRRLR [6mer-1-334] to KKHKPR [6mer-1-903], the Binding affinity (RU) falls from 154 RU to 37 RU.

Compared with KRGITR [6mer-1-327], RKFNWR [6mer-1-924] is lower in Binding affinity (RU): 139 RU for the first, 29 RU for the second.

Compared with RKWRQK [6mer-1-329], RKRQSR [6mer-1-333] is higher in Binding affinity (RU): 123 RU for the first, 135 RU for the second.

Compared with RRASDR [6mer-1-923], RKVQRK [6mer-1-330] is higher in Binding affinity (RU): 43 RU for the first, 148 RU for the second.

Compared with RRIPHR [6mer-1-893], KRDWIK [6mer-1-896] is lower in Binding affinity (RU): 22 RU for the first, 11 RU for the second.

Going from KRSFRR [6mer-1-317] to RKQVRR [6mer-1-321], the Binding affinity (RU) rises from 148 RU to 154 RU.

KRGVQR [6mer-1-322] gave a Binding affinity (RU) of 146 RU.
